Substitutions are numbered along the chain they refer to.

This test addresses recombinant p30 protein of ASFV (African swine fever virus (ASFV), UniProt P0C9Z3 1-181). Nature of the test: ELISA, IgG titrated on immobilized recombinant p30. Background: An ELISA detects its analyte on a solid surface through an enzyme-linked reagent.

B1: p30-091 IgG (antibody, V domains shown)
VH: EVQLVESGGGLVQPGGSLRLSCAASGFTISDYWIHWVRQAPGKGLEWVAYINPHYGLTDYADSVKGRFTISADTSKNTAYLQMNSLRAEDTAVYYCARGWLLDYWGQGTLVTVSS
VL: DIQMTQSPSSLSASVGDRVTITCKSNQNLLDSGDQGTYLNWYQQKPGKAPKLLISDVSNLYSGVPSRFSGSGSGTDFTLTISSLQPEDFATYYCYQATSFPFTFGQGTKVEIKR
By EC50 is commonly meant the concentration that produces a half-maximal response. In the case of B1, the EC50 was 2.6 ng/mL.

B2: p30-077 IgG (antibody, V domains shown)
VH: EVQLVESGGGLVQPGGSLRLSCAASGFTIGDWGIHWVRQAPGKGLEWVAGIWPFGGFTFYADSVKGRFTISADTSKNTAYLQMNSLRAEDTAVYYCARGSFYWDYWGQGTLVTVSS
VL: DIQMTQSPSSLSASVGDRVTITCRASQDVNNNVAWYQQKPGKAPKLLISSPTYLYSGVPSRFSGSGSGTDFTLTISSLQPEDFATYYCQQWYDWPITFGQGTKVEIKR
Take B2: the EC50 turned out to be 2.6 ng/mL.

B3: p30-090 IgG (antibody, V domains shown)
VH: EVQLVESGGGLVQPGGSLRLSCAASGFTIDGGGIHWVRQAPGKGLEWVAGIWPSWGYTYYADSVKGRFTISADTSKNTAYLQMNSLRAEDTAVYYCARGFYWYDYWGQGTLVTVSS
VL: B2 VL with N32D, S49F, S50Y, T52G, Y53G, W91S, Y92W, D93N, W94Y, I96L
As to B3, the half-maximal effective concentration (EC50) was found to be 0.9 ng/mL.

B4: p30-052 IgG (antibody, V domains shown)
VH: EVQLVESGGGLVQPGGSLRLSCAASGFTIDSGFIHWVRQAPGKGLEWVAGIGPFWGFTFYADSVKGRFTISADTSKNTAYLQMNSLRAEDTAVYYCARYGSSSYGFDYWGQGTLVTVSS
VL: B2 VL with N30D, T52G, Y53F, W91Y, Y92F, D93N, W94F
For the molecule B4, the EC50 worked out at 2 ng/mL.
